Literature values, collected in publication PMC7340539.

Molecular target: CD47 (Homo sapiens) (UniProt Q08722)
UniProt Q08722, sequence (Q08722 19-323): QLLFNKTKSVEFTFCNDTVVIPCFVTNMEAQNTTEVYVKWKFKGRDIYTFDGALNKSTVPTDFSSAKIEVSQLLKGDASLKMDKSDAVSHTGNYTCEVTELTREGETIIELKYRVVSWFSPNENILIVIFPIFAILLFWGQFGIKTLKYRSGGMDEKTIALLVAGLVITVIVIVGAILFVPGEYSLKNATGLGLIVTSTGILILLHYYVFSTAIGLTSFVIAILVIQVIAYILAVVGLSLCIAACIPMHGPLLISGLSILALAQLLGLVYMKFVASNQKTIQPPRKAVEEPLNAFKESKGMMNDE

- Kd: 2000 nM
Substance: SIRPα ECD (from UniProt P78324)
